Biological target: VEGF165 (UniProt P15692-4 27-191)
Assay: hydrogel sequestration, anti-VEGFA immunofluorescence (confocal); aptamer tethered in GelMA hydrogel, 10 ng VEGF 1 h; GelMA region without aptamer about 16% of the aptamer-region signal; 0.1% BSA in DPBS, 37 °C, 10 ng VEGF in 1 ml for 1 h, wash, 24 h at 37 °C; 25 µM aptamer in 5% GelMA
Details: protein: commercial; chain copies: 2; single strand, covalently tethered in GelMA hydrogel

Chain of VEGF165 (P15692 other isoform, or with tags, fused parts or gaps): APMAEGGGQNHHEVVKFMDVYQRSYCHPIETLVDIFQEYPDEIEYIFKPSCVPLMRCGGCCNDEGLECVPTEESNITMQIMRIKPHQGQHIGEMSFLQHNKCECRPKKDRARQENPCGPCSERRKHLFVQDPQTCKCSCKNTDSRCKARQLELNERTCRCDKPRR

CGATCGTATCAGTCCACAAGCCCGTCTTCCAGACAAGAGTGCAGGGC (ssDNA, 5'-acrydite) [VEGF165-specific 5'-acrydite aptamer]: binds.
